Assay results as given in patent US20220315554A1, “COMPOUNDS COMPRISING A […] LIGAND AND USE THEREOF” (priority 2019, published 2022).

Key:
[1] = biological target: FAP (Homo sapiens (Human)) (UniProt Q12884)
[2] = biological target: T1, Caspase-3 (Homo sapiens (Human)) (UniProt P42574)
T1 sequence: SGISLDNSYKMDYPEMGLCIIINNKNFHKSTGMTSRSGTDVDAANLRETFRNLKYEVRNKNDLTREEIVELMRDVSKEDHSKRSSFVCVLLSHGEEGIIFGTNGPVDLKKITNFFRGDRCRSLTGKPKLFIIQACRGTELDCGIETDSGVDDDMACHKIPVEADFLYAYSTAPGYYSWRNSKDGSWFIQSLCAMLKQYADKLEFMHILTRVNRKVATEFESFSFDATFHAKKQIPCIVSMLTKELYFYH

[3] = biological target: T2, Caspase-7 (Homo sapiens (Human)) (UniProt P55210)
T2 sequence: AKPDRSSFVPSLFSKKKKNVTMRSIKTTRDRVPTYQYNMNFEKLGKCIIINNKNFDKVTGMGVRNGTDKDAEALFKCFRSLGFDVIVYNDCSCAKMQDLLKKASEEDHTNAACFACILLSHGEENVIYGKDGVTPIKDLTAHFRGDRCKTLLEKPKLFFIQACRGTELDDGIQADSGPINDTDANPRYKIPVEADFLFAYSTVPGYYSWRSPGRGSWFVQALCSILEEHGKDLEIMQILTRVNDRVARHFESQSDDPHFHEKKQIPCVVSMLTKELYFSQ

[4] = biological target: Ataxin3 (Homo sapiens (Human)) (UniProt P54252)
Chain of Ataxin3 (Homo sapiens (Human)) (P54252 whole entry): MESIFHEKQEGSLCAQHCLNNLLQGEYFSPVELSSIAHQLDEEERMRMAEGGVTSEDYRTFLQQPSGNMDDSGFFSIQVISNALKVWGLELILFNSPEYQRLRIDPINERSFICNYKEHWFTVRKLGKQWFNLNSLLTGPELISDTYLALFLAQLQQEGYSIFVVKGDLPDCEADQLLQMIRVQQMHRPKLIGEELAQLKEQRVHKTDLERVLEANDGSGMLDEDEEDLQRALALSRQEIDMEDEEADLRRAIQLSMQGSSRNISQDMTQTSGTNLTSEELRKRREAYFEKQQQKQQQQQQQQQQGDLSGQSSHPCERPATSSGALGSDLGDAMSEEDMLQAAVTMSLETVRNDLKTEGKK

[5] = biological target: Cathepsin V (Homo sapiens (Human)) (UniProt O60911)
[6] = biological target: T3, Cathepsin F (Homo sapiens (Human)) (UniProt Q9UBX1)
T3 sequence: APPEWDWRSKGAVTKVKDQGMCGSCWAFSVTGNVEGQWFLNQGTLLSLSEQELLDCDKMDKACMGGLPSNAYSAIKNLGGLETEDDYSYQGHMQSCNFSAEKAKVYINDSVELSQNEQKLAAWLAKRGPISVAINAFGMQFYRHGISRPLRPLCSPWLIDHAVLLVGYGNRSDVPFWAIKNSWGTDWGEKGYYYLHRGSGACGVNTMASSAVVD

[7] = biological target: Caspase-8 (Homo sapiens (Human)) (UniProt Q14790)
Chain of Caspase-8 (Homo sapiens (Human)) (Q14790 217-479 limits assumed): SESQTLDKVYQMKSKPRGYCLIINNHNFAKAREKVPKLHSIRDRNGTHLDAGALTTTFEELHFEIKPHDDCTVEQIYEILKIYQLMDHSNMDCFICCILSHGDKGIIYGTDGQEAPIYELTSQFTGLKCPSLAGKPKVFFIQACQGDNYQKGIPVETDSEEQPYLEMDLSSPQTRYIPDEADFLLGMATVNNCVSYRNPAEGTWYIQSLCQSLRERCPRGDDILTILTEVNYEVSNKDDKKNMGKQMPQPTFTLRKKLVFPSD

[8] = biological target: Ubiquitin carboxy-terminal hydrolase 7 (Homo sapiens (Human)) (UniProt Q93009)
[9] = biological target: T4, Renin (Homo sapiens (Human)) (UniProt P00797)
T4 sequence: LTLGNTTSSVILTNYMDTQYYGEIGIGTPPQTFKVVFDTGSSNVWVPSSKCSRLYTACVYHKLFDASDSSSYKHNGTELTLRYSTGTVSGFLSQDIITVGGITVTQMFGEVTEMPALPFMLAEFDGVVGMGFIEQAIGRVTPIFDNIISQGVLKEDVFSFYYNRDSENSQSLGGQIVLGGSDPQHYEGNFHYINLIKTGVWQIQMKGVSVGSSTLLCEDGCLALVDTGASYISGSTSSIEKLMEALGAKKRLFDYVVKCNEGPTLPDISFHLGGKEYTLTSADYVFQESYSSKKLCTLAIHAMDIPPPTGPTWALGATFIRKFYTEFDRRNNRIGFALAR

[10] = biological target: Cathepsin B (Homo sapiens (Human)) (UniProt P07858)
[11] = biological target: Ubiquitin carboxy-terminal hydrolase 10 (Homo sapiens (Human)) (UniProt Q14694)
Chain of Ubiquitin carboxy-terminal hydrolase 10 (Homo sapiens (Human)) (Q14694 whole entry): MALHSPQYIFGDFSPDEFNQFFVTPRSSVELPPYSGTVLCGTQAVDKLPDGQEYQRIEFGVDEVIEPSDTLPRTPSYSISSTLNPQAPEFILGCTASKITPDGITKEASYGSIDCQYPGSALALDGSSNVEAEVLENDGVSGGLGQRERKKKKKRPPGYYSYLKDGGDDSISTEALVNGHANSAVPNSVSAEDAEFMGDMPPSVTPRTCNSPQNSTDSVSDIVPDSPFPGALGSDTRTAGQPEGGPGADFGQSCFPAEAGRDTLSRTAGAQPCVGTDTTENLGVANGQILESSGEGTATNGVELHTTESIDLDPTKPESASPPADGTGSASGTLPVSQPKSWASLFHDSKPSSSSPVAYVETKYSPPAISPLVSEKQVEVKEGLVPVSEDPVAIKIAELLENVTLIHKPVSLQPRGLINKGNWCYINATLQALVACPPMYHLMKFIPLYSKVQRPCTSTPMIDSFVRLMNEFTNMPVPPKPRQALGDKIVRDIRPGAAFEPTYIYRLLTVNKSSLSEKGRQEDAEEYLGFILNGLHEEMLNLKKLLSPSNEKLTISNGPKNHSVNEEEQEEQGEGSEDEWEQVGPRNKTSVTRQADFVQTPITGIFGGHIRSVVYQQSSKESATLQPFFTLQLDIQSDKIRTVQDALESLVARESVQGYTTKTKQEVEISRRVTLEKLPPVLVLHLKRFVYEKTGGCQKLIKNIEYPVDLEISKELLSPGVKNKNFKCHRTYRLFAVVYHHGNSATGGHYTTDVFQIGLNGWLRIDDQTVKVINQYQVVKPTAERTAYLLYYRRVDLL

[12] = biological target: Ubiquitin carboxy-terminal hydrolase 8 (Homo sapiens (Human)) (UniProt P40818)
[13] = biological target: Matrix metalloprotease 2 (Homo sapiens (Human)) (UniProt P08253)
Chain of Matrix metalloprotease 2 (Homo sapiens (Human)) (P08253 110-660): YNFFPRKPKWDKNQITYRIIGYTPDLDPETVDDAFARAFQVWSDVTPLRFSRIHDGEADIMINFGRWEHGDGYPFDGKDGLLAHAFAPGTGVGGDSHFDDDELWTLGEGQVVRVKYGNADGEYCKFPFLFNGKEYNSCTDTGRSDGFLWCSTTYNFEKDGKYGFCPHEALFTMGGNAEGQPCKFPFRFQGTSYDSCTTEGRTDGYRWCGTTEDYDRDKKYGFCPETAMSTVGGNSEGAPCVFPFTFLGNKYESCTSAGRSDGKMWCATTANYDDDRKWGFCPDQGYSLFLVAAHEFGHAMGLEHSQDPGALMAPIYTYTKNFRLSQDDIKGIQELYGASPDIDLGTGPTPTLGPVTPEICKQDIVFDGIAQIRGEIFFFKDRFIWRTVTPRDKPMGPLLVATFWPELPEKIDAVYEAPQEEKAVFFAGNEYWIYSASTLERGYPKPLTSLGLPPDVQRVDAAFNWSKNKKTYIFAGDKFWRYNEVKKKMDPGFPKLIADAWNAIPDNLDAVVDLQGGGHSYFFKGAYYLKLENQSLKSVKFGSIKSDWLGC

[14] = biological target: DPP7 (Homo sapiens (Human)) (UniProt Q9UHL4)
[15] = biological target: Cathepsin L (Homo sapiens (Human)) (UniProt P07711)
[16] = biological target: T5, A20 (Homo sapiens (Human)) (UniProt P21580)
T5 sequence: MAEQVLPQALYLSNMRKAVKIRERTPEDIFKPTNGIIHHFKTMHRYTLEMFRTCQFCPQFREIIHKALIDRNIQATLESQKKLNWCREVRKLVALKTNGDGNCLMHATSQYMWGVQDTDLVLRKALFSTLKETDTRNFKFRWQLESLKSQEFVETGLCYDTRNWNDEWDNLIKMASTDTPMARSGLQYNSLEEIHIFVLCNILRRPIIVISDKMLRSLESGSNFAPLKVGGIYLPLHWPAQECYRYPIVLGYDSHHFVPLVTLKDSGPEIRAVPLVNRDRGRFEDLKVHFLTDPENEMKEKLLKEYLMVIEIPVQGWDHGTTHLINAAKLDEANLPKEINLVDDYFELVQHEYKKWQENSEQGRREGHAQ

[17] = biological target: Beta secretase (Homo sapiens (Human)) (UniProt P56817)
[18] = biological target: T6, Ubiquitin carboxy-terminal hydrolase L3 (Homo sapiens (Human)) (UniProt P15374)
T6 sequence: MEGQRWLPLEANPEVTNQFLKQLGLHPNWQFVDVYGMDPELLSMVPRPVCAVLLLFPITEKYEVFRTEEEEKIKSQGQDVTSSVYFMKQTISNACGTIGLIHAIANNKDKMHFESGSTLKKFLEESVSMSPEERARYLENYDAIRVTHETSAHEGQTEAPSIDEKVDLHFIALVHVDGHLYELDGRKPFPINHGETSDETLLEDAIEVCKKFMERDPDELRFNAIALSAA

[19] = biological target: DPP8 (Homo sapiens (Human)) (UniProt Q6V1X1)
[20] = biological target: Activated Protein C (Homo sapiens (Human)) (UniProt P04070)
Chain of Activated Protein C (Homo sapiens (Human)) (P04070 43-461): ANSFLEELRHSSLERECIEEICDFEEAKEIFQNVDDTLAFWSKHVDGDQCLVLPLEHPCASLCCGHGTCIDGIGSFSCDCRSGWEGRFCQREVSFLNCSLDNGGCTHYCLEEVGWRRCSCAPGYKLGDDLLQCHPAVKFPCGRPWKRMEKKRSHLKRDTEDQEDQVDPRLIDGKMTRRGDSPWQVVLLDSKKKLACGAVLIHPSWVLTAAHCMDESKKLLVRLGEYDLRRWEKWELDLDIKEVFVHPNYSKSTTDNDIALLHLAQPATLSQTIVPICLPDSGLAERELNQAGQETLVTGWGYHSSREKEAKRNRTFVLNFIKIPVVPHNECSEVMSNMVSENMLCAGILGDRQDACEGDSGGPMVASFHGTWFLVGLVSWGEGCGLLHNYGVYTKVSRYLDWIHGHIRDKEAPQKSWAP

[21] = biological target: DPP9 (Homo sapiens (Human)) (UniProt Q86TI2)
[22] = biological target: T7, Deubiquitinase OTUD6B (Homo sapiens (Human)) (UniProt Q8N6M0)
T7 sequence: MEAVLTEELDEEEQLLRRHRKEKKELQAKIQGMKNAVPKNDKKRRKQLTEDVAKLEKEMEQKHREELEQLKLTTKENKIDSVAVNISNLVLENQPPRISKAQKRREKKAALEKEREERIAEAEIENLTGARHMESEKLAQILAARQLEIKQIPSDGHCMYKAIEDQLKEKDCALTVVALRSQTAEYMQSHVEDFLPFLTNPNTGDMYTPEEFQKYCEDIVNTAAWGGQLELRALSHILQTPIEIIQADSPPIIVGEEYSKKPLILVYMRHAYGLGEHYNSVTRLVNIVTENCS

Chain of FAP (Homo sapiens (Human)) (Q12884 26-760 limits assumed): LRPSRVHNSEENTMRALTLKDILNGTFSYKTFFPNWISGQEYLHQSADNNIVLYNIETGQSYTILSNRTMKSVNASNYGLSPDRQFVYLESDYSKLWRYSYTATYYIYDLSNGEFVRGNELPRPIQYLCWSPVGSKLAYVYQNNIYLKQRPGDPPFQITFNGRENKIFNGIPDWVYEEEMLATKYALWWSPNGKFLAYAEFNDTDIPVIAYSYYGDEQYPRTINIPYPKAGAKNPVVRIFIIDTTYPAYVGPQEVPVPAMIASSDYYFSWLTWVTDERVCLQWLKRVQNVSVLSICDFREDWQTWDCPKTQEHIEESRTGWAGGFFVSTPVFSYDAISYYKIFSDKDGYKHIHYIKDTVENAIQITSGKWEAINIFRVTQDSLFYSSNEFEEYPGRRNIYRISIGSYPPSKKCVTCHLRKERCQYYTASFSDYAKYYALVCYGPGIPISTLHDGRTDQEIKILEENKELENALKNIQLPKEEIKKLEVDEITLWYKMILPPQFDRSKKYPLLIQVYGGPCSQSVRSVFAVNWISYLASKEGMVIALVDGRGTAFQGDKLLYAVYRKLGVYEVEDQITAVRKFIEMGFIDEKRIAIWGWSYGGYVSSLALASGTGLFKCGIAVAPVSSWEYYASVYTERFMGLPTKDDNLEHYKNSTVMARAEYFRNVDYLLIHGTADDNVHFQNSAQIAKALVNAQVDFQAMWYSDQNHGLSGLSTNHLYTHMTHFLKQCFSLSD

Substance	Percentage inhibition (%) at 1 µM [1] [%]	Percentage inhibition (%) at 10 µM [2] [%]	Percentage inhibition (%) at 10 µM [3] [%]	Percentage inhibition (%) at 10 µM [4] [%]	Percentage inhibition (%) at 10 µM [5] [%]	Percentage inhibition (%) at 10 µM [6] [%]	Percentage inhibition (%) at 10 µM [7] [%]	Percentage inhibition (%) at 10 µM [8] [%]	Percentage inhibition (%) at 10 µM [9] [%]	Percentage inhibition (%) at 10 µM [10] [%]	Percentage inhibition (%) at 10 µM [11] [%]	Percentage inhibition (%) at 10 µM [12] [%]	Percentage inhibition (%) at 10 µM [13] [%]	Percentage inhibition (%) at 10 µM [14] [%]	Percentage inhibition (%) at 10 µM [15] [%]	Percentage inhibition (%) at 10 µM [16] [%]	Percentage inhibition (%) at 10 µM [17] [%]	Percentage inhibition (%) at 10 µM [18] [%]	Percentage inhibition (%) at 10 µM [19] [%]	Percentage inhibition (%) at 10 µM [20] [%]	also measured
Hex-[Cys(tMeBn(DOTA-PP))-Pro-Pro-Thr-Gln-Phe-Cys]-Asp-NH2 (peptide)	98	-2	-3	10	-18	-24	0	5	3	36	5	6	3	-3	6	-4	-5	14	5	8	Percentage inhibition (%) at 10 µM [21]: 0%; Percentage inhibition (%) at 10 µM [22]: 15%
Hex-[Cys(tMeBn(DOTA-AET))-Pro-Pro-Thr-Gln-Phe-Cys]-OH (peptide)	97	-1	-7	-1	-1	-25	-3	1	-1	2	-1	1	-2	-7	-6	0	7	0	11	1	Percentage inhibition (%) at 10 µM [21]: -5%; Percentage inhibition (%) at 10 µM [22]: 0%
